This note sets out measurements from article PMC13082707, “Role of the C-terminal modules of Klebsiella phage KP32 receptor-binding protein gp38 in protein and phage functionality” (PLOS Pathogens, 2026).

Where only a bound is given, the exact number is not on record here.

The target of series [1] is GFP_KP32gp38_LIN-CBM-LEC (Klebsiella phage KP32). Description: SEC-MALS; SEC-MALLS of selected KP32gp38 variants to assess the molecular weight of their oligomeric state, buffer and concentrations not told.
Series [2] concerns the target KP32gp38_CP-E-LIN_K11gp0043_CBM-LEC (Klebsiella phage KP32 | Klebsiella phage K11). Described as above.
For series [3], the target named is KP32gp38_CP-E_K11gp0043_LIN-CBM-LEC (Klebsiella phage KP32 | Klebsiella phage K11). Described as above.
Series [4] has as its target KP32gp38_LEC (Klebsiella phage KP32). The series is described as above.
In series [5] the target is KP32gp38_LIN-CBM-LEC (Klebsiella phage KP32). The description is as above.
For series [6], the target named is KP32gp38_Δ(LIN-CBM) (Klebsiella phage KP32). Described as above.
The target in series [7] is KP32gp38_ΔCBM (Klebsiella phage KP32). Described as above.
In series [8] the target is KP32gp38_ΔLEC (Klebsiella phage KP32).
Series [9] shares this target. The experiment in a line: SEC-MALS; SEC-MALLS of selected KP32gp38 variants to assess the molecular weight of their oligomeric state, buffer and concentrations not told. A general note: In gel filtration, larger molecules generally elute earlier.
Series [10] deals with the molecule itself. Described as above.

Usually stoichiometry N stands for a count of units in the complex or per binding partner. Consider “GFP_KP32gp38_LIN-CBM-LEC (domain or fragment)”, for which the stoichiometry N in [1] is 3.

Turning to KP32gp38_CP-E-LIN_K11gp0043_CBM-LEC, in series [2], the stoichiometry N is 3.

As for KP32gp38_CP-E_K11gp0043_LIN-CBM-LEC, the stoichiometry N in [3] is 3.

In turn, KP32gp38_LEC (domain or fragment) yielded a stoichiometry N in [4] of more than 25.

“KP32gp38_LIN-CBM-LEC (domain or fragment)” showed a stoichiometry N in series [5] of 3.

As for “KP32gp38_Δ(LIN-CBM) (domain or fragment)”, the stoichiometry N in series [6] is 3.

KP32gp38_ΔCBM (domain or fragment) had a stoichiometry N in series [7] of 3.

In turn, KP32gp38_ΔLEC (domain or fragment) yielded an enzymatic activity (halo formation on K21/KL163 lawns) compared to the WT in series [8] of 1000 fold. In series [9], the percent dimers turned out to be 10% and the stoichiometry N came to 2.

B1: KP32gp38_WT, receptor-binding protein 2 (RBP2) of Klebsiella phage KP32 (natural protein, UniProt D1L2X1 1-576, looked up)
chain: MLDNFNQPKGSTIGVLKDGRTIQEAFDSLPRLESFSGSTATDKLRAAITLGVSEVAIGPVEGNGGRPYEFGDVVIPYPLRIVGCGSQGINVTKGTVLKRSAGASFMFHFTGEGQAQRPMGGGLFNINLNGDTATALGDIIKVTQWSYFKANNCAFQNMAGWGIRLKDVMESNISGNLFRRLGGPSGGGILFDDVRSAVTDNVNNLHIEDNTFALMSGPWIGSTANSNPDLIWIVRNKFEFDGTPAAPNTVDSYVLDFQQLSRAFIQDNGFTHFTTERNRYVGVLRVGATAVGTIKFEDNLLFACESAGLIAGGIVVSRGNVNNQGSATTAIKQFTNTSSKLCKLERVINVQSNGNVSVGQQILPDGYINMAELPGNTRLPSEYDADGETTSVLRVPANTQVRQWSVPKMYKDGLTVTKVTVRAKGAAAGAILSLQSGSTVLSTKSIDAGVWKNYVFYVKANQLQETLQLRNTGTADVLADGMVFGKVDYIDWDFAIAPGTLAAGAKYTTPNQSYLDVAGMRVQAVSIPMFDGPTTGLQVWVEATSANGSFVVVMKNDTGSELVTTVTRCRVRAFVS
notes: KP32gp38 (RBP2, capsule depolymerase/tailspike) of Klebsiella phage KP32; domains CP-E-LIN-CBM-LEC; Expressed from pVTD3 (C-terminal His-tag); also called KP32gp38 WT depolymerase; source: E. coli BL21(DE3), purified (His GraviTrap or HisPur Ni-NTA)
With B1, the “stoichiometry N” value in series [10] was found to be 3.
